Assay results: US20030148312A1, “Method for testing for allergic disease” (NATIONAL CENTER FOR CHILD HEALTH AND DEVELOPMENT, priority 2001, published 2003)

B1: IL-4: cytokine used for stimulation of T cells (protein, UniProt P05112 25-153, looked up)
Interleukin-4: HKCDITLQEIIKTLNSLTEQKTLCTELTVTDIFAASKNTTEKETFCRAATVLRQFYSHHEKDTRCLGATAQQFHRHKQLIRFLKRLDRNLWGLAGLNSCPVKEANQSTLENFLERLKTIMREKYSKCSS
B2: IFN-γ: cytokine used for stimulation of T cells (protein, UniProt P01579 24-161, looked up)
Interferon gamma: QDPYVKEAENLKKYFNAGHSDVADNGTLFLGILKNWKEESDRKIMQSQIVSFYFKLFKNFKDDQSIQKSVETIKEDMNVKFFNSNKKKRDDFEKLTNYSVTDLNVQRKAIHELIQVMAELSPAAKTGKRKRSQMLFRG

Legend:
MAL = assay: Expression induction experiment with cytokines in cultured T cells derived from peripheral blood (MAL mRNA); format: cell-based, human; conditions: 0-48 h, IL-4 2 ng/ml, IL-12 2 ng/ml, IFN-γ 200 ng/ml, IFN-α 100 IU/ml
Method: Effects of various cytokines on the MAL expression level were examined. T cells were separated from the peripheral blood sample from an normal healthy subject using the method described in Example 6, and stimulated with the anti-CD3 antibody to induce the cell growth. That is, on a culture plate which was surface-treated with the anti-CD3 antibody, the separated T cells were cultured in a 5% FCS-containing RPMI1640 medium (1 mM sodium pyruvate, 2 mM L-glutamine, 10 U/ml penicillin, 100 μg/ml streptomycin, and 200 U/ml IL-2) at a density of 5×10^5 cells/ml for 5 days. Grown T cells were diluted with the same medium to a density of 5×10^5 cells/ml, and cultured on a non-surface treated plate for further 3 days. The resulting cells were washed with the medium without IL-2, suspended in the medium (without IL-2) supplemented with cytokine for the stimulation at a density of 1×10^6 cells/ml, and cultured under the stimulation for a predetermined period of time. Cells were then collected to prepare RNA. Cytokines used are shown below:
The same medium as that described in Example 3 was used. During the cultivation for 0˜48 h, mRNA for MAL was induced in the case of stimulation with IL-4. […] Induction of MAL expression with IL-4 may indicate the association of MAL with the action of IL-4 in allergic diseases. For example, MAL may act during the differentiation process of T cell into Th2, and also may associate with the production of Th2 cytokines, IL-4, IL-5, and IL-10.

MAL protein [1] = assay: Induction of MAL protein expression in Jurkat cell line (Western blotting of raft fraction); format: cell-based, human; conditions: Jurkat cells, IL-4 2 ng/ml, 32 hours, raft fractions 4, 5, 6
Method: Cell lysate was prepared from Jurkat cells that had been stimulated with IL-4 (2 ng/ml) for 32 hours, and subjected to sucrose density gradient centrifugation according to the method of Fernando Martin-Belmonte et al. (Fernando Martin-Belmonte, Rosa Puertollano, Jaime Millan, and Miguel A. Alonso. The MAL Proteolipid Is Necessary for the Overall Apical Delivery of Membrane Protein in the Polarized Epithelial Madin-Darby Canine Kidney and Fischer Rat Thyroid Cell Lines. Molecular Biology of the Cell 11, 2033-2045, June 2000) to separate the raft fraction (fractions 4, 5, and 6). Proteins in each fraction were separated by SDS polyacrylamide gel electrophoresis, and analyzed by Western blotting using antibody against MAL peptide or that against LAT (linker for activation of T cells).

MAL protein [2] = assay: Induction of MAL protein expression in human peripheral blood T-cells (Western blotting of raft fraction); format: cell-based; conditions: IL-4 2 ng/ml, 41 hours, fraction 4
Method: Human peripheral blood cells that had been cultured and propagated were similarly stimulated as in Example 7 with IL-4 (2 ng/ml) for 41 hours, and then the MAL protein expression in the raft fraction (fraction 4) was examined by Western blotting. As a result, the induction of the MAL protein expression by IL-4 was confirmed also in the raft of human peripheral blood T-cells (FIG. 8).

| Molecule | induction of mRNA for MAL (MAL) | expression of MAL protein in the raft (MAL protein [1]) | MAL protein expression in the raft fraction (MAL protein [2]) |
| --- | --- | --- | --- |
| IFN-α | No such action was observed |  |  |
| B1 | induced | increased | induction |
| B2 | No such action was observed |  |  |
